# Reference: US10975142B2, “Endotrophin neutralization and use thereof” (THE BOARD OF REGENTS OF THE UNIVERSITY OF TEXAS SYSTEM, priority 2013, dated 2021)
# What was measured:
# [1] = tested on: PyMT mice; assay: TZD and cisplatin treatment of FP635/PyMT (PyMT) mice; assay type: in vivo, mouse
# Procedure: FIGS. 19A-19F. TZD augments cisplatin sensitivity and correlates with the COL6A3 levels. FIG. 19A. FP635/PyMT mice were given TZD containing chow (supply approx. 20 mg/kg/day, rosiglitazone) or normal-diet (ND) starting at 8-weeks of age, and cisplatin (1 mg/kg) or PBS treatment was initiated at 10 weeks of age (ip., 3 times/week) over the course of tumor progression. Tumor burden was monitored with a fluorescence scanner (IVIS, Caliper life science). Quantified results are represented as mean±SD (n=8-9/group). *p=0.04, ND/CIS vs. TZD/CIS by unpaired student t-test. Metastatic burden was determined by fluorescence signals in lung tissues. FIG. 19B. Primary cancer cells isolated from tumors in PyMT mice were implanted into WT mice. TZD were given 5 days prior to cisplatin treatment (1 mg/kg, every 5 days). Tumor volumes were determined by caliper measurement and represented as mean±SD (n=5-6/group). *p<0.05 and **p<0.001, ND/CIS vs. TZD/CIS by 2-way ANOVA. FIGS. 19C-19D. Total RNA was extracted from tumor tissues in each group. mRNA levels for collagens such as COL1A1, COL6A1, -A2, and -A3 (FIG. 19C), and EMT genes such as E-cadherin, N-cadherin, Vimentin, Snail, Slug, Twist1 and Twist2 (FIG. 19D) were determined by qRT-PCR and normalized with 36B4. Quantitative results represent mean±SD (n=7/group). *p<0.05, **p<0.01, ***p<0.001 ND/PBS vs. ND/CIS; ^###p<0.001 ND/CIS vs. TZD/CIS by 2-way ANOVA. FIGS. 19E-19F. EMT indices were determined by immunostaining with E-Cadherin (FIG. 19E) and Vimentin (FIG. 19F). Cytokeratin (epithelial cells) and DAPI (nucleus) were co-stained. Staining positive area was quantified (multiple images, n=5/group). **p=0.014 (E) and *p=0.015 (F), ND/CIS vs. TZD/CIS by unpaired student t-test. Scale bars: 100 μm.
# FIGS. 23A-23B: TZD confers beneficial effects on cisplatin treatment in mammary tumors. Met-1 cancer cells (0.5×10^6 cells/mouse) were implanted into wild-type mice and TZD (20 mg/kg) was given by diet and cisplatin (1 mg/kg) was intraperitoneally (ip.) injected every 5 days from 30 days post implantation (n=8/group). ***p<0.001 vs. ND by 2-way ANOVA. Tumor tissues from PyMT mice given TZD or normal diet (ND) diet were histologically assessed. […] Data represent mean±SD (n=5/group). **p=0.0042 ND vs. TZD by unpaired student t-test. Scales: 50 μm. […] Data represent mean±SD (n=5/group). *p=0.002 ND vs. TZD by unpaired student t-test. Arrows indicate staining positive cells. Scales: 25 μm.
# Cisplatin (sigma, 479306) was diluted to 1 mg/ml in PBS and was sonicated briefly before injection. […]
# Infrared fluorescence expressing MMTV-PyMT mice (FP635/PyMT) were imaged by IVIS scanner (Caliper lifesciences) and signal intensity was analyzed with Living image v.3.2 (Caliper lifesciences).
# [2] = tested on: ETP+-cancer cells; assay: allograft of FP635/ETP+-cancer cells in Matrigel plug with or without 10B6; assay type: in vivo, mouse
# Procedure: FIGS. 8A-8I: 10B6 blocks ETP-mediated stromal expansion in vivo. (FIG. 8A) 10B6 (200 μg/mouse) was i.p. injected twice weekly into PyMT mice from 9 to 13 weeks of age. Tumor growth (mean±SEM; n=4-6 per group) was determined by weekly caliper measurements. *P<0.05, **P<0.01, ***P<0.001 vs. IgG control, 2-way ANOVA. (FIG. 8B) Primary mammary epithelial cancer cells were isolated from 12-week-old FP635/PyMT and FP635/PyMT/ETP mice and implanted into WT recipients with the same volume of Matrigel. For the 10B6 group, 10B6 was added in a Matrigel plug (10 μg/plug) admixed with ETP^+-cancer cells (i.e., ETP^+/10B6). A representative whole-body image was acquired 25 days after implantation using IVIS fluorescence scanner. Artificial color indicates fluorescence signal intensity accounts for tumor volume (AU). Quantitative results are represented as mean±SEM (n=3 per group). *P<0.05, unpaired t test. (FIGS. 8C-8I) 6 weeks after implantation, tumor tissues were excised from Ctrl-, ETP^+-, and ETP^+/10B6-cancer cells allografted mice and stained for H&E (FIG. 8C), Masson's Trichrome C (FIG. 8D), α-SMA (FIG. 8E), FSP-1 (FIG. 8F), CD31 (FIG. 8G), F4/80 (FIG. 8H), and Ki67 (FIG. 8I). Quantified results in FIGS. 8D-8I are mean±SEM (multiple images, n=3 per group). *P<0.05, **P<0.01, unpaired t test. Scale bars: 50 μm. (FIG. 8J) Working model for ETP in mammary tumor progression.
# Isolation of mammary epithelial cancer cells and implantation procedures were as previously described. Tumor growth was monitored once weekly beginning 2 weeks after implantation.
# [3] = tested on: diet induced obese (DIO) mice; assay: diet induced obese mice, hyperinsulinemic-euglycemic clamp; assay type: in vivo; details: 10B6 100 μg/mouse vs IgG
# Procedure: FIGS. 24A-24D: Endotrophin neutralization improves the metabolic phenotype. FIG. 24A. Two cohorts of mice (n=8) were exposed to high fat diet for 45 days after weaning. At the indicated time points (arrowheads), mice were treated with anti-endotrophin monoclonal antibodies (100 μg/mouse) or equivalent amounts of non-immune antibody. Body weights were monitored. FIG. 24B. Glucose infusion rate and FIG. 24C. Suppression of hepatic glucose efflux was measured in a hyperinsulinemic euglycemic clamp. FIG. 24D. Table of parameters measured prior and during the clamp. Significant differences as indicated by unpaired student t-test.
# To evaluate the therapeutic potential of endotrophin neutralizing monoclonal antibodies on metabolic perspectives, diet induced obese (DIO) mice were chronically treated with either IgG control or 10B6 (rat anti-mouse endotrophin monoclonal antibody) via intraperitoneal injection at 2 weeks after high-fat diet (HFD) challenge and maintained them on a HFD with antibody treatment for another 4 weeks. […] Strikingly, 10B6 treated DIO mice improved whole-body insulin sensitivity, as determined by the amount of glucose required to maintain euglycemia (FIG. 24B) and by the amount of suppression of hepatic glucose efflux (FIGS. 24C and D).
Molecule,EMT in tumor tissues (loss of E-cadherin or increase in vimentin) ([1]; immunostaining),metallothionein (MT) levels in tumor tissues ([1]; immunostaining),mRNA levels of COL6A3 in tumor tissues ([1]; qRT-PCR),"mRNA levels for EMT transcription factors (Snail, Slug, Twist1) ([1]; qRT-PCR, tumor tissues)",tumor regression ([2]; 6 weeks after implantation),ETP+-cancer cell growth (fluorescence imaging) ([2]; 10B6 10 μg/plug),"ETP-mediated tumor stromal expansion ([2]; H&E, 6 weeks after implantation)","ETP-mediated increase in fibrosis and stromal expansion ([2]; Masson's Trichrome C, α-SMA, FSP-1, CD31, F4/80)","whole-body insulin sensitivity (glucose required to maintain euglycemia, suppression of hepatic glucose efflux) [3]"
"N.N.[Cl][Pt][Cl] [cisplatin, cis-diammine-dichloro-platinum]",significant increase,significantly increased,significantly increased,significantly increased,–,–,–,–,–
"10B6: rat anti-mouse endotrophin monoclonal antibody; light chain variable SEQ ID NO: 2, heavy chain variable SEQ ID NO: 4 (antibody, V domains shown) VH: QVQLQQSGPELAKPGSSVKISCKASGYTFTSYEMHWIKQRPGQGLEWIGYIYPESGSTGYNEKFKGKATLTVDKSSPTAYMQLSSLTPDNSAVYFCTRGLRVLGYVMDVWGHGTSVTVSS VL: DVQLTQSPSFLSASVGDRVTINCKASQNINKYLNWYQQKLGEAPKRLIYNTNNLQTGIPSRFSGSASGTDYTLTISSLHPEDFATYFCLQHSSLYTFGAGTKLELK",–,–,–,–,triggered tumor regression,effectively attenuated,inhibited,completely blocked,improved
